Test results from patent US6875581 (GENOPIA BIOMEDICAL, dated 2005).
Where no end group is shown, it is not given here. [ ]: non-standard residue; d: D form. pS = N[C@@H](COP(=O)(O)O)C(=O)O

Legend:
[1] = biological target: T1, calcineurin-A-beta2/calcineurin-B (human, UniProt P16298 2-524; P63098 1-170); experiment: laser fluorescence correlation spectroscopy (FCS)
T1 construct: also called CNAb2-pQE30 product

[2] = biological target: T2, calcineurin-A-beta1/calcineurin-B (human, UniProt P16298 2-524; P63098 1-170); experiment: laser fluorescence correlation spectroscopy (FCS)
T2 construct: also called CNAb1-pQE30 product

B1: RII-Fluophos (peptide)
peptide: DLDVPIPGRFDRRV[pS](fluorescein)VAAE
notes: Synthetic peptide; It was not converted by calcineurin; also called Fluophos-RII-peptide; fluorescent labeled RII-peptide
B1: binds [1]; binds [2].
